# Source: patent publication US20040101919A1 (TEXAS A AND M UNIVERSITY SYSTEM, published 2004)
# T1: human fibrinogen (human, UniProt P02671 20-629; P02675 31-491; P02679 27-437)
# T1 sequence 1: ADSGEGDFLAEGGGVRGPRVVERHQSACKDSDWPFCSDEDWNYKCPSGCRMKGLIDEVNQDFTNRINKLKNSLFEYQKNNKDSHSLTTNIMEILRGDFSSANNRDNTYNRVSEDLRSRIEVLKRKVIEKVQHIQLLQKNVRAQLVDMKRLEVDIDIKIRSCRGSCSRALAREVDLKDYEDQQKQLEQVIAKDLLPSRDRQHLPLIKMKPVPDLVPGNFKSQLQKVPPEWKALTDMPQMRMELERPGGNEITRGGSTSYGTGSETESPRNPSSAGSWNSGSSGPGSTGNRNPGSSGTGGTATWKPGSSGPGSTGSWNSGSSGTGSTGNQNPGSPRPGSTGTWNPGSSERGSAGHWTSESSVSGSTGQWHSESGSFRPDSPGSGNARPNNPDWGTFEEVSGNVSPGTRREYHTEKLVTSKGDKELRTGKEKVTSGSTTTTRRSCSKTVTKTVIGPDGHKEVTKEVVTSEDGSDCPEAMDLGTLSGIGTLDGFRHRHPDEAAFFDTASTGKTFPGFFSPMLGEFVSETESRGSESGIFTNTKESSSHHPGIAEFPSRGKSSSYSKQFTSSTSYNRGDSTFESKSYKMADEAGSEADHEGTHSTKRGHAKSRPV
# T1 sequence 2: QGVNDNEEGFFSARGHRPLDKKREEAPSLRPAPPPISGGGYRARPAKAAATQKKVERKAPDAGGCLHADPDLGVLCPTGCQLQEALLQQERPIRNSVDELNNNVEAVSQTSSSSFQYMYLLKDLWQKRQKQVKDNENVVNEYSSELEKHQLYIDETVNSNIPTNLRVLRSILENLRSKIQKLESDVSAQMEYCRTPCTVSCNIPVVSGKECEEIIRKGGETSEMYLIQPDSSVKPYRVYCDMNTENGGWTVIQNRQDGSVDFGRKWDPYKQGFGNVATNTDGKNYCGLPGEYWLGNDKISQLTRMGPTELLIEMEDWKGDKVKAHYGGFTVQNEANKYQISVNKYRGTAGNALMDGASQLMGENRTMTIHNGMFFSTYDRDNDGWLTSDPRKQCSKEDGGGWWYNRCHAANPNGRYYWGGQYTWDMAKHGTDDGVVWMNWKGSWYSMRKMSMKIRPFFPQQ
# T1 sequence 3: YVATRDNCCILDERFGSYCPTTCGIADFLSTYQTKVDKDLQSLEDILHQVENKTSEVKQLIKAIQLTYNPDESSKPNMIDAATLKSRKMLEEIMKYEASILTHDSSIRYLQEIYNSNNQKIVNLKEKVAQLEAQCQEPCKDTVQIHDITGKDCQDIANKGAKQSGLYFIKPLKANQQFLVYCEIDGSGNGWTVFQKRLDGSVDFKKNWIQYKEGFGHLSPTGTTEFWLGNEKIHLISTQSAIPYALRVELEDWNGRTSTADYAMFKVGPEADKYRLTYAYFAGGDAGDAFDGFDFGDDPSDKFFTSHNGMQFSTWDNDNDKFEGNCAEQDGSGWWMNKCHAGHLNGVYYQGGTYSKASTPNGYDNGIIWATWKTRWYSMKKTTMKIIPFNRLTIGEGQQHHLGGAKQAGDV
# B1: EF1269 A domain (EF1269A), N-terminal His6-tag fusion protein (other)
# chain: ETGYAQTEPTSTSETNQISATPNVVPRKQVGNIVTAIQLTDKEGNPLGTINQYTDIYLRIEFNLPDNTVNSGDTSVITLPEELRLEKNMTFNVVDDTGTVVAIAQTDVANKTVTLTYTDYVENHANISGSLYFTSLIDFENVENESKIPIYVTVEGEKIFAGDLDYQGEGDDVNEKFSKYSWFIEDDPTEIYNVLRINPTGQTYTDLEVEDVLKTESLSYMKDTMKIERGQWTLDGNAIWQFTPEEDITDQLAVQYGPDDRNFSVHFGNIGTNEYRITYKTKIDHLPEKGETFTNYAKLTENQTVVEEVEVSRVSQTGGGEANGEQYVVEIHKEDEAGQRLAGAEFELIRNSTNQTVAKITTDQNGTAIVKGLLKDNYTLVETKAPTGYQLSQNKIPITPEDFGKNLVALKTVVNHKISYQPVAASFLAGKVLLGKPLKDAEFQFELLDEKGTVLETVSNDTLGKIQFSPLTFETPGNYQYTIREVNTQQTGVSYDTHNLQVQVTVEALLGNLVATTQYDGGQVFTNHYTPEKPIESTTPPTSGTTDTTTNSTTETTSITIEKQAIRNKE
# notes: not shown: N-terminal His6-tag from vector pQE-30
# B2: EF2224 A domain (EF2224A), N-terminal His6-tag fusion protein (other)
# chain: QEVTSDAEKTVEKDGLKVIGKIEDTSSQEDIKTVTYEVTNTRDVPIKDLILKQKNTNDSPIKFVLDTLSEERGPTSLEEQAKVETNEKDQTTDIKLLNLQPNSTRKITINGQITTKASNKLLVSVLIEDNEKGTLVIDLPSKDILADKESVSKEKQETSETKVENQANETASSTNEMTATTSNETKPEAGKAIESIQETALTQATESPEQPPLKAQPTGPLVPPTPGRGFNTPIYQSVHKGELFSTGNTNLKIANENTAAAQTFLNTRGASSGYAINNFPLEFADVDNDPNTYNSSRAYIDLNGAKEIAWAGLFWSASRYKGPAYGTNLSDEEISAPVQFTTPNGTVQRVSPQRYHRIDQDATNPGQRFGYNNTGFSNYADVTSILQGDKSATGSYTLADIPMTSSLNGQYQYYNFSGWSLFVVTKDQASKSRAFSIYYGARGNAAGTNNEFTMSNFLTAKQGNLDPIVTWFTVQGDKYWTGDNAQIKNSAGTWVNISNTLNPVNNAMNATVTDNDEHMVDKYPGKFAPDHPNFLDIDIDRMAIPEGVLNAGQNQINFRTTSSGDDYSTNAIGFAVNAETPEFEIKKEIVEPKETYKVGETITYRVSLKNTKADSEAINSVSKDALDGRLNYLPGSLKIISGPNSGEKTDASGDDQAEYDETNKQIIVRVGNGATATQGGSYKADTAETIYEFKARINERAKANELVPNSATVEAVDILTSAKVNETSNIVEAKIADEQVT
# notes: Expressed in E. coli from pQE-30 and purified; not shown: N-terminal His6-tag from vector pQE-30
# B3: EF1093 A domain (recombinant EF1093), N-terminal His6-tag fusion protein (other)
# chain: EENGESAQLVIHKKKMTDLPDPLIQNSGKEMSEFDKYQGLADVTFSIYNVTNEFYEQRAAGASVDAAKQAVQSLTPGKPVAQGTTDANGNVTVQLPKKQNGKDAVYTIKEEPKEGVVAATNMVVAFPVYEMIKQTDGSYKYGTEELAVVHIYPKNVVANDGSLHVKKVGTAENEGLNGAEFVISKSEGSPGTVKYIQGVKDGLYTWTTDKEQAKRFITGKSYEIGENDFTEAENGTGELTVKNLEVGSYILEEVKAPNNAELIENQTKTPFTIEANNQTPVEKTVKNDTSKVDKTTPSLDGKDVAIGEKIKYQISVNIPLGIADKEGDANKYVKFNLVDKHDAALTFDNVTSGEYAYALYDGDTVIAPENYQVTEQANGFTVAVNPAYIPTLTPGGTLKFVYFMHLNEKADPTKGFKNEANVDNGHTDDQTPPTVEVVTGGKRFIKVDGDVTATQALAGASFVVRDQNSDTANYLKIDETTKAATWVKTKAEATTFTTTADGLVDITGLKYGTYYLEETVAPDDYVLLTNRIEFVVNEQSYGTTENLVSPEKVPNKHK
# notes: as for B1
# B4: EF0089 A domain (EF0089A), N-terminal His6-tag fusion protein (other)
# chain: EEVNSDGQLTLGEVKQTSQQEMTLALQGKAQPVTQEVVVHYSANVSIKAAHWAAPNNTRKIQVDDQKKQIQIELNQQALADTLVLTLNPTATEDVTFSYGQQQRALTLKTGTDPTESTAITSSPAASANEGSTEEASTNSSVPRSSEETVASTTKAIESKTTESTTVKPRVAGPTDISDYFTGDETTIIDNFEDPIYLNPDGTPATPPYKEDVTIHWNFNWSIPEDVREQMKAGDYFEFQLPGNLKPNKPGSGDLVDAEGNVYGTYTISEDGTVRFTFNERITSESDIHGDFSLDTHLNDSDGRGPGDWVIDIPTQEDLPPVVIPIVPDTEQQIDKQGHFDRTPNPSAITWTVDINQAMKDQTNPTVTETWPTGNTFKSVKVYELVMNLDGTIKEVGRELSPDEYTVDKNGNVTIKGDTNKAYRLEYQTTIDEAVIPDGGGDVPFKNHATLTSDNNPNGLDAEATVTATYGKMLDKRNIDYDEANQEFTWEINYNYGEQTIPKDQAVITDTMGDNLTFEPDSLHLYSVTFDDKGNEVVGAELVEGKDYKVVINGDGSFAIDFLHDVTGAVKIDYKTKVDGIVEGDVAVNNRVDVGTGQHSEDDGTASQQNIIKNTGAVDYQNSTIGWTLAVNQNNYLMENAVITDTYEPVPGLTMVPNSLVVKDTTTGAQLTLGKDFMVEITRNADGETGFKVSFIGAYAKTSDAFHITYTTFFDVTELDANNPALDHYRNTAAIDWTDEAGNNHHSEDSKPFKPLPAFDLNAQKSGVYNAVTKEITWTIAVNLSNNRLVDAFLTDPILTNQTYLAGSLKVYEGNTKPDGSVEKVKPTQPLTDITMEEPSEKNQNTWRVDFPNDSRTYVIEFKTSVDEKVIEGSASYDNTASYTNQGSSRDVTGKVSIQHGGESVKKGGEYHKDDPDHVYWHVMINGAQSVLDDVVITDTPSPNQVLDPESLVIYGTNVTEDGTITPDKSVILEEGKDYTLEVTTDNETGQQKIVVKMAHIEAPYYMEYRSLVTSSAAGSTDTVSNQVSITGNGSEVVHGDDNGDVVVDIDHSGGHATGTKGKIQLKKTAMDETTILAGAHFQIWDQAKTQVLREGTVDATGVITFGG
# notes: as for B2
# Key:
# human fibrinogen [1] = target: T1, human fibrinogen; test: screen of binding to ECM proteins; format not detailed for EF1269
# human fibrinogen [2] = target: T1, human fibrinogen; test: ELISA, ECM protein coated, His-tag protein detected with anti-His6 mAb
# Description: Plates were washed once with PBS and blocked with 1% BSA in PBS for 1 h. Fifty □l of 5 and 10 µM concentrations of purified His-tag proteins in the blocking buffer were added and incubated at ambient temperature for 2 h. Plates were washed three times with 0.05% Tween20 in PBS and incubated 2 h with 1:3000 dilution of His₆-tag monoclonal antibody (Amersham Biosciences Corp., Piscataway, N.J.) in blocking buffer. After three washes, 1:3000 dilution of alkaline phosphatase-conjugated anti-mouse antibody in blocking buffer was added to the wells and incubated 2 h. Finally, signal was detected with nitrobluetetrazolium (NBT) and 5-bromo-4-chloro-3-indolyl-phosphate (BCIP) in 0.1 M NaHCO₃, 1 mM MgCl₂, pH 9.8. Absorbance at 405 nm was measured with an ELISA reader
# human fibrinogen [3] = target: T1, human fibrinogen; test: ELISA, ECM protein coated, recombinant protein detected with mouse antiserum; positive if signal 2.5x background
Binder,binding result (human fibrinogen [2]),also measured
B1,–,binding result (human fibrinogen [1]): no binding
B2,binds,–
B3,–,binding result (human fibrinogen [3]): binds
B4,binds,–
